In patent publication US20220356230A1:
Where a chain is given by its changes, count along the chain named.

Tests used:
Settings in all cases: remark: other sources report otherwise
[1] = molecular target: Human SARS Coronavirus Spike Protein (Receptor Binding Domain, His Tag) (Sino 40150-V08B2) (Human SARS Coronavirus), P59594; assay: Luminex bead assay, antigen on microspheres, antibody supernatant
[2] = molecular target: SARS-CoV-2 Spike Protein (RBD)(R319-F541).mFc (SARS-CoV-2); assay: as above
[3] = molecular target: MERS-CoV (NCoV/Novel coronavirus) Spike Protein S1 Protein (aa 1-725, His Tag) (Sino 40069-V08B1) (MERS-CoV), K9N5Q8; assay: as above
[4] = molecular target: SARS-CoV-2 Spike Protein (RBD)(R319-F541).hFc (SARS-CoV-2); assay: as above
[5] = molecular target: MERS-CoV (NCoV/Novel coronavirus) Spike Protein fragment (RBD, aa 367-606, His Tag) (Sino 40071-V08B1) (MERS-CoV), K9N5Q8; assay: as above
[6] = molecular target: Human SARS Coronavirus Spike Protein (Receptor Binding Domain) rabbit Fc (Sino 40150-V31B2) (Human SARS Coronavirus), P59594; assay: as above
[7] = molecular target: Human SARS Coronavirus Spike S1 Subunit Protein (His Tag) (Sino 40150-V08B1) (Human SARS Coronavirus), P59594; assay: as above
[8] = molecular target: Bt-SARS-CoV-2 Spike Protein (RBD)(R319-F541).hFc (SARS-CoV-2)
[9] = molecular target: Bt-SARS-CoV-2 Spike Protein (RBD)(R319-F541).mFc (SARS-CoV-2)
[10] = molecular target: SARS-CoV-2 RBD extracellular domain expressed with a C-terminal myc-myc-hexahistidine tag (SARS-COV-2 RBD-MMH) (SARS-CoV-2)
[11] = molecular target: SARS-CoV-2 spike protein receptor binding domain (amino acids Arg319 to Phe541) expressed with the F (SARS-CoV-2)
[12] = molecular target: SARS-CoV-2 RBD extracellular domain expressed with a C-terminal human IgG1 (SARS-COV-2 RBD-hFc) (SARS-CoV-2)

B1: mAb11004 (antibody, V domains shown)
VH: QVQLVESGGGVVQPGRSLRLSCVASGFTFSIYGMDWVRQAPGKGLEWVAVISYDGSNKYYADSVKGRFTISRDNSKNTLYLQMNSLRPEDTAVYYCAKDREAAADAFDIWGQGTMVTVSS
VL: DIQMTQSPSSVSASVGDRVTITCRASQGISSWLAWYQQKPGKAPKLLIYAASSLHSGVPSRFSGSGSGTDFTLTISSLQPEDFATYYCQQANSFRLTFGGGTKVEIK
Q: For B1, which Binding signal (MFI) [1] is on record?
A: Its Binding signal (MFI) is 740 MFI.

Q: And the Binding signal (MFI) [2]?
A: Its Binding signal (MFI) is 4580 MFI.

Q: And the Binding signal (MFI) [3]?
A: Its Binding signal (MFI) is 17 MFI.

Q: What about the Binding signal (MFI) [4] of the same binder?
A: The Binding signal (MFI) was 4880 MFI.

Q: And the Binding signal (MFI) [5]?
A: The Binding signal (MFI) was 26 MFI.

Q: And the Binding signal (MFI) [6]?
A: The Binding signal (MFI) was 5520 MFI.

Q: And the Binding signal (MFI) [7]?
A: Its Binding signal (MFI) is 33 MFI.

Q: What about the Binding signal (MFI) [8] of the same binder?
A: Its Binding signal (MFI) is 7620 MFI.

Q: What about the Binding signal (MFI) [9] of the same binder?
A: Its Binding signal (MFI) is 4300 MFI.

Q: And the Kd [10]?
A: Its Kd is 16.6 nM.

Q: What about the t½ [10] of the same binder?
A: Its t½ is 3.7 min.

Q: And the SARS-CoV-2 RBD-hFc Binding to His presented ACE2 (Abs 450 nm) [11]?
A: Its SARS-CoV-2 RBD-hFc Binding to His presented ACE2 (Abs 450 nm) is 0.211 Abs 450 nm.

Q: What about the Kd [12] of the same binder?
A: Its Kd is 0.191 nM.

Q: What about the t½ [12] of the same binder?
A: The t½ was 174 min.

B2: mAb11006 (antibody, V domains shown)
VH: EVQLVESGGGLVQPGGSLRLSCAASGFIVSRNYMSWVRQAPGKGLEWVSVIYSGGSTFYADSVKGRFTISRHNSKNTLYLQMNSLKAEDTAVYYCARELRGYFDYWGQGTLVTVSS
VL: DIQLTQSPSFLSASVGDRVTITCWASQGISSYLAWYQQKPGKAPKLLIYAASTLQSGVPSRFSGSGSGTEFTLTISSLQPEDFATYYCQLLNSYPYTFGQGTKLEIK
Q: With B2 as the binder, how does the Binding signal (MFI) [1] read?
A: Its Binding signal (MFI) is 667 MFI.

Q: What about the Binding signal (MFI) [2] of the same binder?
A: Its Binding signal (MFI) is 2870 MFI.

Q: And the Binding signal (MFI) [3]?
A: The Binding signal (MFI) was 18 MFI.

Q: And the Binding signal (MFI) [4]?
A: The Binding signal (MFI) was 3980 MFI.

Q: What about the Binding signal (MFI) [5] of the same binder?
A: Its Binding signal (MFI) is 15 MFI.

Q: What about the Binding signal (MFI) [6] of the same binder?
A: The Binding signal (MFI) was 615 MFI.

Q: And the Binding signal (MFI) [7]?
A: The Binding signal (MFI) was 339 MFI.

Q: And the Binding signal (MFI) [8]?
A: The Binding signal (MFI) was 3810 MFI.

Q: And the Binding signal (MFI) [9]?
A: The Binding signal (MFI) was 1400 MFI.

Q: What about the Kd [10] of the same binder?
A: Its Kd is 4.1 nM.

Q: And the t½ [10]?
A: The t½ was 31.5 min.

Q: What about the Kd [12] of the same binder?
A: The Kd was under 0.0532 nM.

Q: And the t½ [12]?
A: Its t½ is over 1160 min.

B3: mAb11008 (antibody, V domains shown)
VH: EVQLVESGGGLVQPGGSLRLSCAASGFTVSSNYMTWVRQAPGKGLEWVSVIYSGGSTFYADSVKGRFTISRHNSENTLYLQMNSLRAEDTAVYYCARDLAAAGTDYWGQGALVTVSS
VL: B2 VL with E81D, L90H, P95L
Q: What does the source list for B3?
A: Binding signal (MFI) [1]: 174 MFI; Binding signal (MFI) [2]: 4260 MFI; Binding signal (MFI) [3]: 18 MFI; Binding signal (MFI) [4]: 2570 MFI; Binding signal (MFI) [5]: 20 MFI; Binding signal (MFI) [6]: 120 MFI; Binding signal (MFI) [7]: 31 MFI; Binding signal (MFI) [8]: 4110 MFI; Binding signal (MFI) [9]: 3050 MFI; Kd [10]: 59.4 nM; t½ [10]: 2.9 min; Kd [12]: 0.715 nM; t½ [12]: 100 min

B4: mAb10998 (antibody, V domains shown)
VH: EVQLVESGGGLVHPGGSLRLSCAASGLTVSSNYMSWVRQAPGKGLEWVSVIYSGGSTYYADSVKGRFTISRHNSKNTLFLQMNSLRAEDTAVYYCARDRPITGTTLDVWGQGTTVTVSS
VL: DIQMTQSPSSLFASVGDRVTITCRASQSISSYLNWYQQKPGKAPKLLIYAASSLQSGVPSRFSGSGSGTDFTLTISSLQPEDFAFYYCQQTYSTPPITFGQGTRLEIK
Q: With B4 as the binder, how does the Binding signal (MFI) [1] read?
A: Its Binding signal (MFI) is 37 MFI.

Q: What about the Binding signal (MFI) [2] of the same binder?
A: Its Binding signal (MFI) is 2230 MFI.

Q: And the Binding signal (MFI) [3]?
A: The Binding signal (MFI) was 19 MFI.

Q: What about the Binding signal (MFI) [4] of the same binder?
A: The Binding signal (MFI) was 1740 MFI.

Q: And the Binding signal (MFI) [5]?
A: Its Binding signal (MFI) is 24 MFI.

Q: And the Binding signal (MFI) [6]?
A: The Binding signal (MFI) was 29 MFI.

Q: What about the Binding signal (MFI) [7] of the same binder?
A: The Binding signal (MFI) was 16 MFI.

Q: And the Binding signal (MFI) [8]?
A: Its Binding signal (MFI) is 467 MFI.

Q: What about the Binding signal (MFI) [9] of the same binder?
A: The Binding signal (MFI) was 2230 MFI.

Q: What about the Kd [10] of the same binder?
A: The Kd was 117 nM.

Q: And the t½ [10]?
A: Its t½ is 0.5 min.

Q: And the Kd [12]?
A: The Kd was 1.58 nM.

Q: What about the t½ [12] of the same binder?
A: Its t½ is 22.2 min.
